This note sets out measurements from article PMC7207076 (Biochemistry, 2020).

In general, kcat refers to the maximal rate divided by the concentration of active sites.

Non-standard residues stand in square brackets, D forms with d. No end group written: not given here. Lys(Me3) = C[N+](C)(C)CCCC[C@H](N)C(=O)O Where only a bound is given, the exact number is not on record here.

The target of assay [1] is T1, KDM5A1–797 (Homo sapiens, UniProt P29375).
T1 sequence (P29375 1-797): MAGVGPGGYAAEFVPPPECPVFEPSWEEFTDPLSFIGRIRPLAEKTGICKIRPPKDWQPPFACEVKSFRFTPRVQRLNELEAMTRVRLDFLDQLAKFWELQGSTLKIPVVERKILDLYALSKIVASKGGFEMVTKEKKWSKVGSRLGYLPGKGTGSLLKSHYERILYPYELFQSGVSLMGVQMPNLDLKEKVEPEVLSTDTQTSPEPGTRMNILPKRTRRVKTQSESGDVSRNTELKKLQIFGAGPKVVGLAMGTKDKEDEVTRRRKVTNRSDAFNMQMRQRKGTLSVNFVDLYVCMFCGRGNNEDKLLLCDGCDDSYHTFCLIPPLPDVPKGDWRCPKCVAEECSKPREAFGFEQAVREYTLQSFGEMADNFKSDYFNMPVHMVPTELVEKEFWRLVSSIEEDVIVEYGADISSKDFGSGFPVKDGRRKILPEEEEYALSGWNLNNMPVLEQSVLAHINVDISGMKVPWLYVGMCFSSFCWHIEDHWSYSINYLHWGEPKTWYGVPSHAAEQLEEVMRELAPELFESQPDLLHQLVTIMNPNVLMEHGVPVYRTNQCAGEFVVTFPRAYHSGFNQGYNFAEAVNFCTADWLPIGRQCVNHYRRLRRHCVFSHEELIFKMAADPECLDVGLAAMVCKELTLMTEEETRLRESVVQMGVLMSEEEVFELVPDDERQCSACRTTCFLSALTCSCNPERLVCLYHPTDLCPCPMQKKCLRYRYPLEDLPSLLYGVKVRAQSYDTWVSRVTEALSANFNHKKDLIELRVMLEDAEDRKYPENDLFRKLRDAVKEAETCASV
Format: biochemical. Conditions: for fold increase of KMapp compared to the 18mer WT peptide: H3K4me3 basic patch (K14-K18) deletion/mutant/acetylated peptides; for kcat: 21mer H3K4me3 peptide substrates, saturating (20 μM) effector peptide (unmodified H3 10mer, aa 1–10), means ± SEM of two independent experiments, SEM; for fold increase of KMapp relative to 21mer WT peptide: 21mer H3K4me3 peptides, PHD1 domain saturated with effector peptide.

Assay [2] deals with T1, KDM5A1–797. It counts as biochemical. Conditions: for KDM5A1–797 activity normalized to the 18mer WT peptide reaction (100%): H3K4me3 basic patch mutant/deletion peptides.

Consider “13mer: 13mer H3K4me3 peptide lacking the K14-K18 basic patch (ARTKQTARKSTGG; K4me3; UniProt P68431 2-14, looked up, fragment)”, for which the “fold increase of KMapp compared to the 18mer WT peptide” value with KDM5A1–797 [1] is recorded as 8 fold. For the same substance, the “KDM5A1–797 activity normalized to the 18mer WT peptide reaction (100%)” value with KDM5A1–797 [2] (two independent experiments) is recorded as 28%−35%.
The like results for “18mer-K14A/R17A/K18A: 18mer H3K4me3 peptide, K14A/R17A/K18A triple mutant (ART[Lys(Me3)]QTARKSTGGAAPAA; UniProt P68431 2-19, looked up, variant K14A R17A K18A)” were, in that order, 8 fold and 28%−35%.
For “H3K18me3 (aa 12—32): H3 peptide aa 12—32 trimethylated at K18”, in the assay with KDM5A1–797 [2] (peptide incubated with KDM5A1—797 (Figure S3)), the “demethylation of H3K18me3 peptide by KDM5A1—797” value is “no demethylation was detected”.
As to “K9A: 21mer H3K4me3 peptide with K9A mutation”, the kcat in the assay with KDM5A1–797 [1] was determined as 0.061 ± 0.002 s⁻¹.
As to “Q5A: 21mer H3K4me3 peptide with Q5A mutation”, in the assay with KDM5A1–797 [1], the kcat turned out to be 0.056 ± 0.003 s⁻¹ and the “fold increase of KMapp relative to 21mer WT peptide” value is recorded as greater than 30 fold. The “KDM5A1–797 activity normalized to the 21mer H3K4me3 WT peptide reaction (100%)” value with KDM5A1–797 [2] (21mer H3K4me3 alanine mutant peptides, two independent experiments) was ~ 20%.
With “R2A: 21mer H3K4me3 peptide with R2A mutation”, in the assay with KDM5A1–797 [1], the kcat turned out to be 0.069 ± 0.002 s⁻¹ and the “fold increase of KMapp relative to 21mer WT peptide” value is listed as ~ 12 fold. The “fold rescue in demethylation in the presence of the effector peptide” value in the assay with KDM5A1–797 [2] (20 μM effector (unmodified 10mer H3 peptide), 21mer H3K4me3 mutant peptide) is recorded as ~ 3 fold.
Regarding “R8A: 21mer H3K4me3 peptide with R8A mutation”, in the assay with KDM5A1–797 [1], the turnover number (kcat) was 0.054 ± 0.002 s⁻¹ and the “fold increase of KMapp relative to 21mer WT peptide” value is on record as ~ 4 fold.
As for “T3A: 21mer H3K4me3 peptide with T3A mutation”, the kcat with KDM5A1–797 [1] turned out to be 0.056 ± 0.001 s⁻¹.
As to “T6A: 21mer H3K4me3 peptide with T6A mutation”, in the assay with KDM5A1–797 [1], the catalytic constant (kcat) was 0.075 ± 0.004 s⁻¹ and the “fold increase of KMapp relative to 21mer WT peptide” value was ~ 8 fold.
As to “T6S: 21mer H3K4me3 peptide with T6 mutated to serine”, the kcat with KDM5A1–797 [1] was determined as 0.070 ± 0.002 s⁻¹.
In the case of “T6V: 21mer H3K4me3 peptide with T6 mutated to valine”, in the assay with KDM5A1–797 [1], the kcat is 0.050 ± 0.003 s⁻¹ and the “fold increase of KMapp relative to 21mer WT peptide” value is 3 fold.
Take “WT: H3 N-terminal 21mer (aa A1-A21) H3K4me3 wild-type peptide substrate”: the kcat with KDM5A1–797 [1] came to 0.052 ± 0.001 s⁻¹.
